B1: full-length human β-catenin (natural protein)
chain: GMATQADLMELDMAMEPDRKAAVSHWQQQSYLDSGIHSGATTTAPSLSGKGNPEEEDVDTSQVLYEWEQGFSQSFTQEQVADIDGQYAMTRAQRVRAAMFPETLDEGMQIPSTQFDAAHPTNVQRLAEPSQMLKHAVVNLINYQDDAELATRAIPELTKLLNDEDQVVVNKAAVMVHQLSKKEASRHAIMRSPQMVSAIVRTMQNTNDVETARCTAGTLHNLSHHREGLLAIFKSGGIPALVKMLGSPVDSVLFYAITTLHNLLLHQEGAKMAVRLAGGLQKMVALLNKTNVKFLAITTDCLQILAYGNQESKLIILASGGPQALVNIMRTYTYEKLLWTTSRVLKVLSVCSSNKPAIVEAGGMQALGLHLTDPSQRLVQNCLWTLRNLSDAATKQEGMEGLLGTLVQLLGSDDINVVTCAAGILSNLTCNNYKNKMMVCQVGGIEALVRTVLRAGDREDITEPAICALRHLTSRHQEAEMAQNAVRLHYGLPVVVKLLHPPSHWPLIKATVGLIRNLALCPANHAPLREQGAIPRLVQLLVRAHQDTQRRTSMGGTQQQFVEGVRMEEIVEGCTGALHILARDVHNRIVIRGLNTIPLFVQLLYSPIENIQRVAAGVLCELAQDKEAAEAIEAEGATAPLTELLHSRNEGVATYAAAVLFRMSEDKPQDYKKRLSVELTSSLFRTEPMAWNETADLGLDIGAQGEPLGYRQDDPSYRSFHSGGYGQDALGMDPMMEHEMGGHHPGADYPVDGLPDLGHAQDLMDGLPPGDSNQLAWFDTDL
B2: entire cytoplasmic domain of human E-cadherin (EcadCT; residues 731 to 882) (domain or fragment)
chain: not shown
B3: full-length human αE-catenin (natural protein)
chain: GMTAVHAGNINFKWDPKSLEIRTLAVERLLEPLVTQVTTLVNTNSKGPSNKKRGRSKKAHVLAASVEQATENFLEKGDKIAKESQFLKEELVAAVEDVRKQGDLMKAAAGEFADDPCSSVKRGNMVRAARALLSAVTRLLILADMADVYKLLVQLKVVEDGILKLRNAGNEQDLGIQYKALKPEVDKLNIMAAKRQQELKDVGHRDQMAAARGILQKNVPILYTASQACLQHPDVAAYKANRDLIYKQLQQAVTGISNAAQATASDDASQHQGGGGGELAYALNNFDKQIIVDPLSFSEERFRPSLEERLESIISGAALMADSSCTRDDRRERIVAECNAVRQALQDLLSEYMGNAGRKERSDALNSAIDKMTKKTRDLRRQLRKAVMDHVSDSFLETNVPLLVLIEAAKNGNEKEVKEYAQVFREHANKLIEVANLACSISNNEEGVKLVRMSASQLEALCPQVINAALALAAKPQSKLAQENMDLFKEQWEKQVRVLTDAVDDITSIDDFLAVSENHILEDVNKCVIALQEKDVDGLDRTAGAIRGRAARVIHVVTSEMDNYEPGVYTEKVLEATKLLSNTVMPRFTEQVEAAVEALSSDPAQPMDENEFIDASRLVYDGIRDIRKAVLMIRTPEELDDSDFETEDFDVRSRTSVQTEDDQLIAGQSARAIMAQLPQEQKAKIAEQVASFQEEKSKLDAEVSKWDDSGNDIIVLAKQMCMIMMEMTDFTRGKGPLKNTSDVISAAKKIAEAGSRMDKLGRTIADHCPDSACKQDLLAYLQRIALYCHQLNICSKVKAEVQNLGGELVVSGVDSAMSLIQAAKNLMNAVVQTVKASYVASTKYQKSQGMASLNLPAVSWKMKAPEKKPLVKREKQDETQTKIKRASQKKHVNPVQALSEFKAMDSI
B4: complex of the β-catenin truncation mutant that lacks the N-terminal 107 residues with EcadCT (B_(N-107)E) (complex)
chain 1: QIPSTQFDAAHPTNVQRLAEPSQMLKHAVVNLINYQDDAELATRAIPELTKLLNDEDQVVVNKAAVMVHQLSKKEASRHAIMRSPQMVSAIVRTMQNTNDVETARCTAGTLHNLSHHREGLLAIFKSGGIPALVKMLGSPVDSVLFYAITTLHNLLLHQEGAKMAVRLAGGLQKMVALLNKTNVKFLAITTDCLQILAYGNQESKLIILASGGPQALVNIMRTYTYEKLLWTTSRVLKVLSVCSSNKPAIVEAGGMQALGLHLTDPSQRLVQNCLWTLRNLSDAATKQEGMEGLLGTLVQLLGSDDINVVTCAAGILSNLTCNNYKNKMMVCQVGGIEALVRTVLRAGDREDITEPAICALRHLTSRHQEAEMAQNAVRLHYGLPVVVKLLHPPSHWPLIKATVGLIRNLALCPANHAPLREQGAIPRLVQLLVRAHQDTQRRTSMGGTQQQFVEGVRMEEIVEGCTGALHILARDVHNRIVIRGLNTIPLFVQLLYSPIENIQRVAAGVLCELAQDKEAAEAIEAEGATAPLTELLHSRNEGVATYAAAVLFRMSEDKPQDYKKRLSVELTSSLFRTEPMAWNETADLGLDIGAQGEPLGYRQDDPSYRSFHSGGYGQDALGMDPMMEHEMGGHHPGADYPVDGLPDLGHAQDLMDGLPPGDSNQLAWFDTDL
chain 2: not shown

Experiments:
[1] = biological target: B3; test: contrast variation small-angle neutron scattering
[2] = biological target: B1; test: SPR
[3] = biological target: β-catenin•epithelial cadherin cytoplasmic domain complex (BE) (human, UniProt P35222;P12830); test: SPR
[4] = biological target: B3; test: SPR

Binder: B1
binding result [1]: binds

Binder: B2
Kd [2]: 104 ± 3.2 nM

Binder: B3
Kd [3]: 119 ± 6.3 nM
koff [3]: 0.0004 s⁻¹

Binder: B4
Kd [4]: 12600 ± 758 nM
koff [4]: 0.002 s⁻¹

Reference: publication PMC6815173 (Proceedings of the National Academy of Sciences of the …, 2019)
